Here are results for 6 molecules from patent US20240270846A1 (published 2024).

B1: GLS3000 T92Y one-amino acid altered one-arm antibody (CE115HA000-pE22Hh / Kn010G3 / GLS3000 T92Y-kappa) (antibody, human IgG1, kappa, L234A L235A, N297A, name in Kabat numbering)
heavy: QVQLVESGGGVVQPGRSLRLSCAASGFTFSNAWMHWVRQAPGKGLEWVAQIKAKSNNYATYYAESVKGRFTISRDDSKNSLYLQMNSLKTEDTAVYYCRYVHYGAYYGVDAWGQGTTVTVSSASTKGPSVFPLAPSSKSTSGGTAALGCLVKDYFPEPVTVSWNSGALTSGVHTFPAVLQSSGLYSLSSVVTVPSSSLGTQTYICNVNHKPSNTKVDKKVEPKSCDKTHTCPPCPAPEAAGGPSVFLFPPKPKDTLMISRTPEVTCVVVDVSHEDPEVKFNWYVDGVEVHNAKTKPREEQYASTYRVVSVLTVLHQDWLNGKEYKCKVSNKALPAPIEKTISKAKGQPREPQVYTLPPSRCELTKNQVSLSCAVKGFYPSDIAVEWESNGQPENNYKTTPPVLDSDGSFFLVSKLTVDKSRWQQGNVFSCSVMHEALHNHYTQKSLSLSPDYKDDDDK
chain: EPKSSDKTHTCPPCPAPELLGGPSVFLFPPKPKDTLMISRTPEVTCVVVDVSHEDPEVKFNWYVDGVEVHNAKTKPREEQYNSTYRVVSVLTVLHQDWLNGKEYKCKVSNKALPAPIEKTISKAKGQPREPQVCTLPPSRDELTKNQVSLWCLVKGFYPSDIAVEWESNGQPENNYKTTPPVLDSDGSFFLYSKLTVDKSRWQQGNVFSCSVMHEALHNRYTQKSLSLSP
light: DIVMTQSPLSLPVTPGEPASISCRSSQSLVHSNRNTYLHWYQQKPGQAPRLLIYKVSNRFSGVPDRFSGSGSGTDFTLKISRVEAEDVGVYYCGQGYQVPYTFGQGTKLEIKRTVAAPSVFIFPPSDEQLKSGTASVVCLLNNFYPREAKVQWKVDNALQSGNSQESVTEQDSKDSTYSLSSTLTLSKADYEKHKVYACEVTHQGLSSPVTKSFNRGEC
notes: One-arm antibody; substitution position in Kabat numbering; also called L chain altered form, Kabat 92 T to Y
B2: GLS3000 V94R one-amino acid altered one-arm antibody (CE115HA000-pE22Hh / Kn010G3 / GLS3000 V94R-kappa) (antibody, human IgG1, kappa, L234A L235A, N297A, name in Kabat numbering)
heavy: QVQLVESGGGVVQPGRSLRLSCAASGFTFSNAWMHWVRQAPGKGLEWVAQIKAKSNNYATYYAESVKGRFTISRDDSKNSLYLQMNSLKTEDTAVYYCRYVHYGAYYGVDAWGQGTTVTVSSASTKGPSVFPLAPSSKSTSGGTAALGCLVKDYFPEPVTVSWNSGALTSGVHTFPAVLQSSGLYSLSSVVTVPSSSLGTQTYICNVNHKPSNTKVDKKVEPKSCDKTHTCPPCPAPEAAGGPSVFLFPPKPKDTLMISRTPEVTCVVVDVSHEDPEVKFNWYVDGVEVHNAKTKPREEQYASTYRVVSVLTVLHQDWLNGKEYKCKVSNKALPAPIEKTISKAKGQPREPQVYTLPPSRCELTKNQVSLSCAVKGFYPSDIAVEWESNGQPENNYKTTPPVLDSDGSFFLVSKLTVDKSRWQQGNVFSCSVMHEALHNHYTQKSLSLSPDYKDDDDK
chain: EPKSSDKTHTCPPCPAPELLGGPSVFLFPPKPKDTLMISRTPEVTCVVVDVSHEDPEVKFNWYVDGVEVHNAKTKPREEQYNSTYRVVSVLTVLHQDWLNGKEYKCKVSNKALPAPIEKTISKAKGQPREPQVCTLPPSRDELTKNQVSLWCLVKGFYPSDIAVEWESNGQPENNYKTTPPVLDSDGSFFLYSKLTVDKSRWQQGNVFSCSVMHEALHNRYTQKSLSLSP
light: DIVMTQSPLSLPVTPGEPASISCRSSQSLVHSNRNTYLHWYQQKPGQAPRLLIYKVSNRFSGVPDRFSGSGSGTDFTLKISRVEAEDVGVYYCGQGTQRPYTFGQGTKLEIKRTVAAPSVFIFPPSDEQLKSGTASVVCLLNNFYPREAKVQWKVDNALQSGNSQESVTEQDSKDSTYSLSSTLTLSKADYEKHKVYACEVTHQGLSSPVTKSFNRGEC
notes: One-arm antibody; substitution position in Kabat numbering; also called L chain altered form, Kabat 94 V to R
B3: GLS3000 V94S one-amino acid altered one-arm antibody (CE115HA000-pE22Hh / Kn010G3 / GLS3000 V94S-kappa) (antibody, human IgG1, kappa, L234A L235A, N297A, name in Kabat numbering)
heavy: QVQLVESGGGVVQPGRSLRLSCAASGFTFSNAWMHWVRQAPGKGLEWVAQIKAKSNNYATYYAESVKGRFTISRDDSKNSLYLQMNSLKTEDTAVYYCRYVHYGAYYGVDAWGQGTTVTVSSASTKGPSVFPLAPSSKSTSGGTAALGCLVKDYFPEPVTVSWNSGALTSGVHTFPAVLQSSGLYSLSSVVTVPSSSLGTQTYICNVNHKPSNTKVDKKVEPKSCDKTHTCPPCPAPEAAGGPSVFLFPPKPKDTLMISRTPEVTCVVVDVSHEDPEVKFNWYVDGVEVHNAKTKPREEQYASTYRVVSVLTVLHQDWLNGKEYKCKVSNKALPAPIEKTISKAKGQPREPQVYTLPPSRCELTKNQVSLSCAVKGFYPSDIAVEWESNGQPENNYKTTPPVLDSDGSFFLVSKLTVDKSRWQQGNVFSCSVMHEALHNHYTQKSLSLSPDYKDDDDK
chain: EPKSSDKTHTCPPCPAPELLGGPSVFLFPPKPKDTLMISRTPEVTCVVVDVSHEDPEVKFNWYVDGVEVHNAKTKPREEQYNSTYRVVSVLTVLHQDWLNGKEYKCKVSNKALPAPIEKTISKAKGQPREPQVCTLPPSRDELTKNQVSLWCLVKGFYPSDIAVEWESNGQPENNYKTTPPVLDSDGSFFLYSKLTVDKSRWQQGNVFSCSVMHEALHNRYTQKSLSLSP
light: DIVMTQSPLSLPVTPGEPASISCRSSQSLVHSNRNTYLHWYQQKPGQAPRLLIYKVSNRFSGVPDRFSGSGSGTDFTLKISRVEAEDVGVYYCGQGTQSPYTFGQGTKLEIKRTVAAPSVFIFPPSDEQLKSGTASVVCLLNNFYPREAKVQWKVDNALQSGNSQESVTEQDSKDSTYSLSSTLTLSKADYEKHKVYACEVTHQGLSSPVTKSFNRGEC
notes: One-arm antibody; substitution position in Kabat numbering; also called L chain altered form, Kabat 94 V to S
B4: GLS3000 V94Q one-amino acid altered one-arm antibody (CE115HA000-pE22Hh / Kn010G3 / GLS3000 V94Q-kappa) (antibody, human IgG1, kappa, L234A L235A, N297A, name in Kabat numbering)
heavy: QVQLVESGGGVVQPGRSLRLSCAASGFTFSNAWMHWVRQAPGKGLEWVAQIKAKSNNYATYYAESVKGRFTISRDDSKNSLYLQMNSLKTEDTAVYYCRYVHYGAYYGVDAWGQGTTVTVSSASTKGPSVFPLAPSSKSTSGGTAALGCLVKDYFPEPVTVSWNSGALTSGVHTFPAVLQSSGLYSLSSVVTVPSSSLGTQTYICNVNHKPSNTKVDKKVEPKSCDKTHTCPPCPAPEAAGGPSVFLFPPKPKDTLMISRTPEVTCVVVDVSHEDPEVKFNWYVDGVEVHNAKTKPREEQYASTYRVVSVLTVLHQDWLNGKEYKCKVSNKALPAPIEKTISKAKGQPREPQVYTLPPSRCELTKNQVSLSCAVKGFYPSDIAVEWESNGQPENNYKTTPPVLDSDGSFFLVSKLTVDKSRWQQGNVFSCSVMHEALHNHYTQKSLSLSPDYKDDDDK
chain: EPKSSDKTHTCPPCPAPELLGGPSVFLFPPKPKDTLMISRTPEVTCVVVDVSHEDPEVKFNWYVDGVEVHNAKTKPREEQYNSTYRVVSVLTVLHQDWLNGKEYKCKVSNKALPAPIEKTISKAKGQPREPQVCTLPPSRDELTKNQVSLWCLVKGFYPSDIAVEWESNGQPENNYKTTPPVLDSDGSFFLYSKLTVDKSRWQQGNVFSCSVMHEALHNRYTQKSLSLSP
light: DIVMTQSPLSLPVTPGEPASISCRSSQSLVHSNRNTYLHWYQQKPGQAPRLLIYKVSNRFSGVPDRFSGSGSGTDFTLKISRVEAEDVGVYYCGQGTQQPYTFGQGTKLEIKRTVAAPSVFIFPPSDEQLKSGTASVVCLLNNFYPREAKVQWKVDNALQSGNSQESVTEQDSKDSTYSLSSTLTLSKADYEKHKVYACEVTHQGLSSPVTKSFNRGEC
notes: One-arm antibody; substitution position in Kabat numbering; also called L chain altered form, Kabat 94 V to Q
B5: GLS3000 V94T one-amino acid altered one-arm antibody (CE115HA000-pE22Hh / Kn010G3 / GLS3000 V94T-kappa) (antibody, human IgG1, kappa, L234A L235A, N297A, name in Kabat numbering)
heavy: QVQLVESGGGVVQPGRSLRLSCAASGFTFSNAWMHWVRQAPGKGLEWVAQIKAKSNNYATYYAESVKGRFTISRDDSKNSLYLQMNSLKTEDTAVYYCRYVHYGAYYGVDAWGQGTTVTVSSASTKGPSVFPLAPSSKSTSGGTAALGCLVKDYFPEPVTVSWNSGALTSGVHTFPAVLQSSGLYSLSSVVTVPSSSLGTQTYICNVNHKPSNTKVDKKVEPKSCDKTHTCPPCPAPEAAGGPSVFLFPPKPKDTLMISRTPEVTCVVVDVSHEDPEVKFNWYVDGVEVHNAKTKPREEQYASTYRVVSVLTVLHQDWLNGKEYKCKVSNKALPAPIEKTISKAKGQPREPQVYTLPPSRCELTKNQVSLSCAVKGFYPSDIAVEWESNGQPENNYKTTPPVLDSDGSFFLVSKLTVDKSRWQQGNVFSCSVMHEALHNHYTQKSLSLSPDYKDDDDK
chain: EPKSSDKTHTCPPCPAPELLGGPSVFLFPPKPKDTLMISRTPEVTCVVVDVSHEDPEVKFNWYVDGVEVHNAKTKPREEQYNSTYRVVSVLTVLHQDWLNGKEYKCKVSNKALPAPIEKTISKAKGQPREPQVCTLPPSRDELTKNQVSLWCLVKGFYPSDIAVEWESNGQPENNYKTTPPVLDSDGSFFLYSKLTVDKSRWQQGNVFSCSVMHEALHNRYTQKSLSLSP
light: DIVMTQSPLSLPVTPGEPASISCRSSQSLVHSNRNTYLHWYQQKPGQAPRLLIYKVSNRFSGVPDRFSGSGSGTDFTLKISRVEAEDVGVYYCGQGTQTPYTFGQGTKLEIKRTVAAPSVFIFPPSDEQLKSGTASVVCLLNNFYPREAKVQWKVDNALQSGNSQESVTEQDSKDSTYSLSSTLTLSKADYEKHKVYACEVTHQGLSSPVTKSFNRGEC
notes: One-arm antibody; substitution position in Kabat numbering; also called L chain altered form, Kabat 94 V to T
B6: GLS3000 T97P one-amino acid altered one-arm antibody (CE115HA000-pE22Hh / Kn010G3 / GLS3000 T97P-kappa) (antibody, human IgG1, kappa, L234A L235A, N297A, name in Kabat numbering)
heavy: QVQLVESGGGVVQPGRSLRLSCAASGFTFSNAWMHWVRQAPGKGLEWVAQIKAKSNNYATYYAESVKGRFTISRDDSKNSLYLQMNSLKTEDTAVYYCRYVHYGAYYGVDAWGQGTTVTVSSASTKGPSVFPLAPSSKSTSGGTAALGCLVKDYFPEPVTVSWNSGALTSGVHTFPAVLQSSGLYSLSSVVTVPSSSLGTQTYICNVNHKPSNTKVDKKVEPKSCDKTHTCPPCPAPEAAGGPSVFLFPPKPKDTLMISRTPEVTCVVVDVSHEDPEVKFNWYVDGVEVHNAKTKPREEQYASTYRVVSVLTVLHQDWLNGKEYKCKVSNKALPAPIEKTISKAKGQPREPQVYTLPPSRCELTKNQVSLSCAVKGFYPSDIAVEWESNGQPENNYKTTPPVLDSDGSFFLVSKLTVDKSRWQQGNVFSCSVMHEALHNHYTQKSLSLSPDYKDDDDK
chain: EPKSSDKTHTCPPCPAPELLGGPSVFLFPPKPKDTLMISRTPEVTCVVVDVSHEDPEVKFNWYVDGVEVHNAKTKPREEQYNSTYRVVSVLTVLHQDWLNGKEYKCKVSNKALPAPIEKTISKAKGQPREPQVCTLPPSRDELTKNQVSLWCLVKGFYPSDIAVEWESNGQPENNYKTTPPVLDSDGSFFLYSKLTVDKSRWQQGNVFSCSVMHEALHNRYTQKSLSLSP
light: DIVMTQSPLSLPVTPGEPASISCRSSQSLVHSNRNTYLHWYQQKPGQAPRLLIYKVSNRFSGVPDRFSGSGSGTDFTLKISRVEAEDVGVYYCGQGTQVPYPFGQGTKLEIKRTVAAPSVFIFPPSDEQLKSGTASVVCLLNNFYPREAKVQWKVDNALQSGNSQESVTEQDSKDSTYSLSSTLTLSKADYEKHKVYACEVTHQGLSSPVTKSFNRGEC
notes: One-arm antibody; substitution position in Kabat numbering; also called L chain altered form, Kabat 97 T to P
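Note: CD3 epsilon homodimer attached to the CM4 chip via amine coupling, measured at 25 °C with HBS-EP+ as running buffer.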

T1 sequence (P07766 23-126): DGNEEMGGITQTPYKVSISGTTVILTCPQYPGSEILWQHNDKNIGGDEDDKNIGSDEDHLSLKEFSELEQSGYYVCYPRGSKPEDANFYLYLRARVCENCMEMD

The assay concerns the target T1, CD3 epsilon homodimer protein (UniProt P07766 23-126).
T1 construct: also called CD3 (CD3 epsilon)
In words: SPR Biacore T200, CD3 epsilon homodimer immobilised on CM4, one-arm antibody as analyte, single-cycle kinetics; reference unaltered GLS3000 antibody. (In general: Surface plasmon resonance follows binding to a sensor surface in real time, without labels.)
Method: An appropriate amount of CD3 epsilon homodimer protein was immobilized onto Sensor chip CM4 (GE Healthcare Japan Corp.) by the amine coupling method. Then, the antibody having an appropriate concentration was injected thereto as an analyte and allowed to interact with the CD3 epsilon homodimer protein on the sensor chip. Then, the sensor chip was regenerated by the injection of 10 mmol/L glycine-HCl (pH 1.5). The assay was conducted at 25 degrees C., and HBS-EP+(GE Healthcare Japan Corp.) was used as a running buffer. […] Each parameter was calculated using Biacore T200 Evaluation Software (GE Healthcare Japan Corp.).
Specifically, when the amount of the GLS3000-containing antibody bound was defined as X and the amount of the L chain one-amino acid altered form bound was defined as Y, a value of Z (ratio of amounts bound)=Y/X was used.
For the molecule B1, the “dissociation constant KD(M) ratio of L chain altered form to GLS3000” value (from here on “dissociation constant KD(M) ratio”) was 2.55 ratio.

For B2, the “dissociation constant KD(M) ratio” value is 1.11 ratio.

Regarding B3, the “dissociation constant KD(M) ratio” value came to 0.81 ratio.

Regarding B4, the “dissociation constant KD(M) ratio” value is 1.1 ratio.

B5: the “dissociation constant KD(M) ratio” value was 1.06 ratio.

In the case of B6, the “dissociation constant KD(M) ratio” value worked out at 3.35 ratio.
